Measurements published in patent US6436691B1, “Chemical compounds” (Zeneca Limited, priority 1995, dated 2002).
Positions count from the first letter of the chain named. Names and notes keep the numbering of the source.

B1: [A248S,G251T,D253K]HCPB: HCPB mutant with A248S, G251T and D253K, (His)6-c-myc tag (protein, UniProt P15086 111-417, looked up, variant A248S G251T D253K)
Carboxypeptidase B: ATGHSYEKYNKWETIEAWTQQVATENPALISRSVIGTTFEGRAIYLLKVGKAGQNKPAIFMDCGFHAREWISPAFCQWFVREAVRTYGREIQVTELLDKLDFYVLPVLNIDGYIYTWTKSRFWRKTRSTHTGSSCIGTDPNRNFDAGWCEIGASRNPCDETYCGPAAESEKETKALADFIRNKLSSIKAYLTIHSYSQMMIYPYSYAYKLGENNAELNALAKATVKELASLHGTKYTYGPGATTIYPSAGTSKDWAYDQGIRYSFTFELRDTGRYGFLLPESQIRATCEETFLAIKYVASYVLEHLY
modifications: (His)6-c-myc tag
B2: [A248N, G251N, D253K]: HCPB mutant with A248N, G251N and D253K, (His)6-c-myc tag (protein, UniProt P15086 111-417, looked up, variant A248N G251N D253K)
Carboxypeptidase B: B1 Carboxypeptidase B with S248N, T251N
modifications: (His)6-c-myc tag
B3: [A248S, G251N, D253K]: HCPB mutant with A248S, G251N and D253K, (His)6-c-myc tag (protein, UniProt P15086 111-417, looked up, variant A248S G251N D253K)
Carboxypeptidase B: B1 Carboxypeptidase B with T251N
modifications: (His)6-c-myc tag
B4: [S205N, G251N, D253K]: HCPB mutant with S205N, G251N and D253K, (His)6-c-myc tag (protein, UniProt P15086 111-417, looked up, variant S205N G251N D253K)
Carboxypeptidase B: B1 Carboxypeptidase B with S205N, S248A, T251N
modifications: (His)6-c-myc tag
B5: [G251N, D253K, T266G]: HCPB mutant with G251N, D253K and T266G, (His)6-c-myc tag (protein, UniProt P15086 111-417, looked up, variant G251N D253K T266G)
Carboxypeptidase B: B1 Carboxypeptidase B with S248A, T251N, T266G
modifications: (His)6-c-myc tag
B6: [A248N, G251T, D253K]: HCPB mutant with A248N, G251T and D253K, (His)6-c-myc tag (protein, UniProt P15086 111-417, looked up, variant A248N G251T D253K)
Carboxypeptidase B: B1 Carboxypeptidase B with S248N
modifications: (His)6-c-myc tag

What was measured:
Format in all cases: biochemical
[1] = Km and kcat of HCPB mutants with Hipp-Glu (Example 7); settings: Hipp-Glu 0.25-8.0 mM; pH 7.5; 5 h at 37° C.
Protocol: Hipp-Glu and Hipp-Asp were diluted in range 0.25-8.0 mM and 0.25-5.0 mM respectively in 0.025 M Tris-HCL buffer, pH 7.5. Where necessary substrate samples were adjusted to pH 7.5 with 1M NaOH.
Samples were incubated for 5 h at 37° C. Reactions were terminated by the addition of 500 μl methanol/distilled water (80/20) containing 0.2% TFA. The amount of hippuric acid produced was quantified by HPLC as described in Example 6.
Km and Vmax values were calculated using the ENZFITTER software programme (Biosoft, Perkin Elmer).

[2] = Conversion of Hipp-Glu by purified HCPB mutants, 30 minutes, HPLC (Example 17); settings: 0.5 mM substrate, 30 minutes at 37° C.
Protocol: (§1) Purified mutants of human CPB (D253K; [G251K,D253R]; [G251N,D253R]; [I201S,D253K]; [G251N,D253K]; [Q54R,D145A,D253K]; [G251T,D253K]; [G251S,D253K]; [A248N,G251N,D253K]; [A248S,G251N,D253K] and [S205N,G251N,D253K]—described in Examples 3, 12, 13, 16, 28, 30, 31, 32 and 33) were assayed for their ability to convert hippuryl-L-glutamic acid (Hipp-Glu—Reference Example 1), hippuryl-L-aspartic acid (Hipp-Asp—Reference Example 2) and hippuryl-L-arginine (Sigma Chemical Company—cat no. H6625) to hippuric acid using a HPLC based assay similar to that described in Example 6.
(§2) Samples were incubated for 30 minutes at 37° C. The reactions were terminated by the addition of 500 μl of 40% methanol, 60% distilled water, 0.2% trifluoro acetic acid and the amount of hippuric acid generated was quantitated by HPLC as described in Example 6 but using a mobile phase of 20% methanol, 80% 50 mM phosphate buffer, pH 6.5. Hippuric acid was detected at 230 nm. The results are shown in Table 5 and are expressed as the percentage conversion of substrate into product in 30 minutes at 37° C.

[3] = Conversion of Hipp-Asp by purified HCPB mutants, 30 minutes, HPLC (Example 17); settings: 0.5 mM substrate, 30 minutes at 37° C.
Protocol: as §1, §2

[4] = Conversion of Hipp-Arg by purified HCPB mutants, 30 minutes, HPLC (Example 17); settings: 0.5 mM substrate, 30 minutes at 37° C.
Protocol: as §1, §2

[5] = Conversion of Hipp-Glu by periplasmic shockate of HCPB mutants, 24 h (Example 18); settings: 24 h at 37° C.
Protocol: (§3) The activity of [G251T,D253K]HCPB was measured using the assay conditions described in Example 17 but using either 50 μl of a neat or 1 in 10 or 1 in 100 dilution of [G251T,D253K]HCPB crude E.coli periplasmic shockate (shockate) sample in place of purified enzyme. Samples were incubated for 24 h at 37° C. […] For other HCPB mutants, the reaction volume was 250 μl and contained 125 μl of neat shockate or 1 in 50 dilution of shockate. The shockate samples were prepared as described in Example 16. The amount of Hippuric acid produced in 24 h was quantified by HPLC as described in Example 17 and the results are shown in Table 6 and are expressed as the percentage conversion of substrate into product in 24 h at 37° C.

[6] = Conversion of Hipp-Asp by periplasmic shockate of HCPB mutants, 24 h (Example 18); settings: shockate concentration in reaction mixture 50 %; 24 h at 37° C.
Protocol: as §3

[7] = shockate concentration in reaction mixture 1 %
[8] = shockate concentration in reaction mixture 50 %

Molecule	Km [1] [µM]	kcat, Hipp-Glu [1] [s⁻¹]	Hipp-Glu (% conversion) ([2]; enzyme 0.25 μg/ml) [%]	Hipp-Glu (% conversion) ([2]; enzyme 25 μg/ml) [%]	Hipp-Asp (% conversion) ([3]; enzyme 0.25 μg/ml) [%]	Hipp-Asp (% conversion) ([3]; enzyme 25 μg/ml) [%]	Hipp-Arg (% conversion) ([4]; enzyme 0.25 μg/ml) [%]	Hipp-Arg (% conversion) ([4]; enzyme 25 μg/ml) [%]	Hipp-Glu (% conversion) [5, 7] [%]	Hipp-Glu (% conversion) [5, 8] [%]	Hipp-Asp (% conversion) [6] [%]	Hipp-Glu (% conversion) ([2]; enzyme 0.5 μg/ml) [%]	Hipp-Asp (% conversion) ([3]; enzyme 0.5 μg/ml) [%]	Hipp-Arg (% conversion) ([4]; enzyme 0.5 μg/ml) [%]
B1	1100	19	14.5	93	0	5.5	0	0	20	91.3	0.5			
B2			25.3	100	0.6	2.5	0	1.4		63.9	0			
B3				86		1.3		0		46.1	1	10.7	0	0
B4				85		0.48		0.2		14.1	0	7.9	0	0
B5										0.95	3.4			
B6									53.5	95	1			
